Earlier results on 1 substance are cited in PMC12376249.

This data set addresses Histone H1 (Homo sapiens) (UniProt P07305). Description: single-molecule FRET.
Chain of UniProt P07305 (P07305 2-194): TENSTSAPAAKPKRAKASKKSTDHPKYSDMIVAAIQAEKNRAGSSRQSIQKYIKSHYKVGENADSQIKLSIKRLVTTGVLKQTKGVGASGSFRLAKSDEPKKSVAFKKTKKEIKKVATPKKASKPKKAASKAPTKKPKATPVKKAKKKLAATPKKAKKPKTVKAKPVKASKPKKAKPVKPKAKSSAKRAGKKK

Prothymosin alpha (from UniProt P06454): the Kd was 50 pM.

The Kd is the free concentration of one partner at which half of the binding sites on the other are occupied at equilibrium, for simple one-to-one binding.
